Test results taken from patent US9211313B2, “Methods and compound to inhibit Ca2+ permeable cation conductance” (priority 2011, dated 2015).

What was measured:
[1] = system: mdx mice; test: Toxicity with daily subQ dosing for 30 days; type: in vivo, mouse
Procedure: This example describes toxicity studies with GsMTx-4. In one experiment, D-GsMTx4 was administered to 60 mdx mice and controls by daily subQ dosing at 5 mg/kg for 30 days at the Washington D.C. Wellstone center.

[2] = system: LPA-induced cation conductance in human SS red cells; test: On-cell patch clamp of LPA-induced cation conductance; type: cell-based; conditions: 1 μM in the pipette
Text: On-cell patch clamp: Borosilicate pipettes (Corning 7052) pulled with a Narishige two stage puller or a Sutter P97 puller and fire-polished to resistances of 10-20 MΩ were front-filled and then backfilled. Symmetric bath and pipette solutions for studies of seal resistance stability during reversibility tests of the deoxygenation-activated conductance in SAD mouse red cells were (in mM) 140 NaCl, 4 KCl, 1 CaCl2, 1 MgCl2, 10 Na HEPES, pH 7.4. These conditions yielded tight seals in 13% of patch attempts on SAD cells. For study of deoxygenation-induced monovalent cation permeation in the absence of bath Ca^2+ and Mg^2+ recorded in SAD and Berkeley mouse cells and in human cells, symmetric bath and pipette solutions contained (in mM) 150 Na methanesulfonate, 10 Na EDTA, and 10 Na HEPES, pH 7.4. These conditions yielded tight seals in 16% of patch attempts on SAD mouse red cells, 26% of attempts on Berkeley mouse cells, and 30% of attempts on human SS cells. For study of Ca^2+ permeation in human SS cells, bath and pipette solutions contained (in mM) 100 CaCl2, 10 Na HEPES, pH 7.4. These conditions yielded tights seals on 44% of attempts. For all conditions tested in human red cells, 70% of tight seals were sustained through the solution change accompanying deoxygenation to allow recording of current activity.
On-cell patch currents were recorded with the Axopatch 1-D amplifier (Axon Instruments/Molecular Devices, Sunnyvale, Calif.). Holding potential was −Vp=−50 mV (expressed as the negative of the pipette potential (e.g., equivalent to the intracellular potential with respect to the pipette). To determine current-voltage relationships (I-V curves) in Fetchex or Clampex (PCLAMP, Axon Instruments), the realtime control window in gap-free mode was used to record current traces of 10-30 sec duration at holding potentials ranging from −100 to +100 mV, in 25 mV increments. The bath reference electrode was a silver chloride wire with a 3 M KCl agar bridge. Data was filtered at 500 Hz, digitized at 2 kHz by Clampex, and analyzed offline by Fetchan and Pstat or by Clampfit subroutines of PCLAMP. Holding potentials in on-cell patch experiments were expressed as −Vp, the negative of the pipette potential.
Deoxygenation-activated flickering cation conductance observed in human SS cells contrasted with the prolonged channel openings produced by 5 μM LPA (FIG. 10A). In SS cells, LPA increased NPo […], from 0.04±0.03 to 0.82±0.18 (n=8, p<0.001; Na methanesulfonate in bath and pipette, −Vp=−50 mV; FIG. 10B). LPA-induced cation conductance was 96% inhibited by 100 uM dipyridamole in the pipette, and 97% inhibited by 1 μM GsMTx-4 in the pipette (both n=4).

[3] = system: deoxygenation-activated Ca2+-permeable conductance in human SS cells; test: On-cell patch clamp of deoxygenation-activated Ca2+-permeable conductance, CaCl2 in pipette; type: cell-based; conditions: 1 μM in the pipette; -Vp=-25 mV
Procedure: Blood cell preparation: Human SS and AA blood was obtained under IRB-approved protocols of Children's Hospital and Beth Israel Deaconess Medical Center. After buffy coat removal and 5 washes in standard human red cell wash solution containing (in mM) 150 choline Cl, 1 MgCl, and 10 Tris-MOPS, pH 7.4, red cells were resuspended in storage solution containing (in mM) 145 KCl, 15 NaCl, and 10 HEPES, pH 7.4, then kept at 4° C. until used. […]
Mouse red cells allowed to settle on coverslips were superfused 15 min with bath solution containing (in mM) either 150 mM Na methanesulfonate, 10 Na EDTA, and 10 Na HEPES, pH 7.4; or 140 NaCl, 4 KCl, 1CaCl2, 1 MgCl2, 10 Na HEPES, pH 7.4. […] The resulting bath pO2 was 18 mm Hg as measured by oxygen electrode (WPI). […]
On-cell patch clamp: Borosilicate pipettes (Corning 7052) pulled with a Narishige two stage puller or a Sutter P97 puller and fire-polished to resistances of 10-20 MΩ were front-filled and then backfilled. […] For study of deoxygenation-induced monovalent cation permeation in the absence of bath Ca^2+ and Mg^2+ recorded in SAD and Berkeley mouse cells and in human cells, symmetric bath and pipette solutions contained (in mM) 150 Na methanesulfonate, 10 Na EDTA, and 10 Na HEPES, pH 7.4. […]
On-cell patch currents were recorded with the Axopatch 1-D amplifier (Axon Instruments/Molecular Devices, Sunnyvale, Calif.). […]

[4] = system: red cell; type: cell-based; conditions: data not shown

Grammastola spatulata mechanotoxin 4 (GCLEFWWKCNPNDDKCCRPKLKCSKLFKLCNFSF; listed as Grammastola spatulata) [GsMTx-4]
toxicity in mice, general statement [1]: very low to absent toxicity | toxicity ([1]; 5 mg/kg subQ daily, 30 days (month long)): no toxicity observed | effect on LPA-induced increase in NPo [2]: prevented | inhibition of LPA-induced cation conductance ([2]; 5 μM LPA, n=4): 97% | effect on deoxygenation-induced increase in NPo, Ca2+ in the pipette [3]: prevented | effect on red cell shape [4]: did not alter
